The Immune Epitope Database (IEDB)

Experiments:
HLA-A*02:06 = assay: IEDB peptide-MHC binding, purified MHC/competitive/radioactivity; ≥ and ≤ were set here for values at or beyond the usual limits of such assays
HLA-A*02:02 = assay: as above
HLA-A*02:01 [1] = assay: as above
HLA-A*68:02 [2] = assay: as above
HLA-A*02:03 = assay: IEDB peptide-MHC binding, cellular MHC/competitive/fluorescence; ≥ and ≤ were set here for values at or beyond the usual limits of such assays
HLA-A*68:02 [3] = assay: as above
HLA-A*02:01 [4] = assay: as above
[5] = source organism: Mammarenavirus choriomeningitidis
[6] = source organism: Vaccinia virus WR
[7] = source organism: Mammarenavirus machupoense
[8] = source organism: Influenza A virus
[9] = source organism: Mammarenavirus lassaense
[10] = source organism: Mammarenavirus guanaritoense
[11] = source organism: Mammarenavirus whitewaterense
[12] = source organism: Mammarenavirus brazilense

Sequence | IC50 (HLA-A*02:06; [6]) [nM] | IC50 (HLA-A*02:02; [6]) [nM] | IC50 (HLA-A*02:01 [1]; [6]) [nM] | IC50 (HLA-A*02:03; [6]) [nM] | IC50 (HLA-A*68:02 [2]; [6]) [nM] | other results
MSCDDVVFGI | – | – | – | – | – | IC50 (HLA-A*02:06; [5]): 250 nM; IC50 (HLA-A*02:02; [5]): 1050 nM; IC50 (HLA-A*02:01 [1]; [5]): 1010 nM; IC50 (HLA-A*68:02 [2]; [5]): 54 nM; IC50 (HLA-A*02:03; [5]): 12100 nM
VQTLISLNSM | 853 | 1560 | 259 | 5820 | – | IC50 (HLA-A*68:02 [3]; [6]): 50900 nM
CAVIPFDDIV | 184 | 2920 | 1090 | 7420 | 137 | –
LNKSDSSWAV | – | – | – | – | – | IC50 (HLA-A*02:06; [7]): 2190 nM; IC50 (HLA-A*02:02; [7]): 550 nM; IC50 (HLA-A*02:01 [1]; [7]): 1230 nM; IC50 (HLA-A*68:02 [3]; [7]): 8700 nM; IC50 (HLA-A*02:03; [7]): 5260 nM
VLTSVDIET | 14 | 382 | 136 | 11300 | – | IC50 (HLA-A*68:02 [3]; [6]): 37500 nM
ITDDSDDYEL | 49 | 687 | 1730 | 11900 | – | IC50 (HLA-A*68:02 [3]; [6]): 11900 nM
NQLDSSNKSM | 635 | 1780 | – | 30000 | – | IC50 (HLA-A*02:01 [4]; [6]): 17100 nM; IC50 (HLA-A*68:02 [3]; [6]): 52700 nM
DIPTFNSLNT | 45 | 2020 | – | 16600 | 900 | IC50 (HLA-A*02:01 [4]; [6]): 23000 nM
YAVLSEYETM | 1210 | 157 | – | 9630 | 4160 | IC50 (HLA-A*02:01 [4]; [6]): 5510 nM
MLIIFWFSL | – | – | – | – | – | IC50 (HLA-A*02:06; source organism: SARS-CoV1): 490 nM; IC50 (HLA-A*02:02; source organism: SARS-CoV1): 132 nM; IC50 (HLA-A*02:01 [1]; source organism: SARS-CoV1): 1160 nM; IC50 (HLA-A*68:02 [3]; source organism: SARS-CoV1): 6910 nM; IC50 (HLA-A*02:03; source organism: SARS-CoV1): 13000 nM
ITVGMLIYSM | 97 | 47 | 167 | 6110 | 611 | –
VLFQNWGI | – | – | – | – | – | IC50 (HLA-A*02:06; [8]): 2640 nM; IC50 (HLA-A*02:02; [8]): 1560 nM; IC50 (HLA-A*02:01 [1]; [8]): 849 nM; IC50 (HLA-A*68:02 [3]; [8]): 54800 nM; IC50 (HLA-A*02:03; [8]): 10100 nM
CVDHPFIYVI | 1610 | 964 | 2890 | 10800 | 791 | –
TTPLISFFGL | 3360 | 5000 | – | 17600 | 198 | IC50 (HLA-A*02:01 [4]; [6]): 27300 nM
CNYSKYWYL | – | – | – | – | – | IC50 (HLA-A*02:06; [9]): 2710 nM; IC50 (HLA-A*02:02; [9]): 3660 nM; IC50 (HLA-A*68:02 [2]; [9]): 4190 nM; IC50 (HLA-A*02:01 [4]; [9]): 16300 nM; IC50 (HLA-A*02:03; [9]): 7130 nM
FLVLIMLII | – | – | – | – | – | IC50 (HLA-A*02:06; source organism: SARS-CoV1): 1350 nM; IC50 (HLA-A*02:02; source organism: SARS-CoV1): 1630 nM; IC50 (HLA-A*02:01 [1]; source organism: SARS-CoV1): 2300 nM; IC50 (HLA-A*68:02 [2]; source organism: SARS-CoV1): 2570 nM; IC50 (HLA-A*02:03; source organism: SARS-CoV1): 9730 nM
IISTDQDTM | 2360 | 4300 | – | 33200 | – | IC50 (HLA-A*02:01 [4]; [6]): 5870 nM; IC50 (HLA-A*68:02 [3]; [6]): 6690 nM

Sequence | IC50 (HLA-A*02:06; [6]) [nM] | IC50 (HLA-A*02:02; [6]) [nM] | IC50 (HLA-A*02:01 [1]; [6]) [nM] | IC50 (HLA-A*02:03; [6]) [nM] | IC50 (HLA-A*68:02 [2]; [6]) [nM] | other results
CTMERTNDLT | 1010 | 4050 | – | 16100 | 8.7 | IC50 (HLA-A*02:01 [4]; [6]): 18600 nM
IVNTTYDFLA | 956 | 1250 | 2390 | 8270 | 991 | –
DIKYISRDEL | 2060 | 2550 | 3570 | 9580 | 321 | –
WSAIFFTTSL | – | – | – | – | – | IC50 (HLA-A*02:06; [10]): 1410 nM; IC50 (HLA-A*02:02; [10]): 2000 nM; IC50 (HLA-A*68:02 [2]; [10]): 300 nM; IC50 (HLA-A*02:01 [4]; [10]): 9090 nM; IC50 (HLA-A*02:03; [10]): 6990 nM
CTNDIYCDEI | 4760 | 2460 | – | 5720 | 192 | IC50 (HLA-A*02:01 [4]; [6]): 9060 nM
VVYHDDDNTT | 3920 | 1860 | 2980 | 12600 | – | IC50 (HLA-A*68:02 [3]; [6]): 27800 nM
YALEPRKEI | 4110 | 3700 | – | 7070 | 710 | IC50 (HLA-A*02:01 [4]; [6]): 9810 nM
VCFWSTLFYV | – | – | – | – | – | IC50 (HLA-A*02:06; [11]): 1130 nM; IC50 (HLA-A*02:02; [11]): 349 nM; IC50 (HLA-A*02:01 [1]; [11]): 904 nM; IC50 (HLA-A*68:02 [2]; [11]): 525 nM; IC50 (HLA-A*02:03; [11]): 7020 nM
FSAVISGSV | – | – | – | – | – | IC50 (HLA-A*02:06; [11]): 161 nM; IC50 (HLA-A*02:02; [11]): 48 nM; IC50 (HLA-A*02:01 [1]; [11]): 83 nM; IC50 (HLA-A*68:02 [2]; [11]): 2.6 nM; IC50 (HLA-A*02:03; [11]): 14100 nM
KQIMECSRML | 60 | 55 | 357 | 29600 | – | IC50 (HLA-A*68:02 [3]; [6]): 7470 nM
IVSRSSRGV | 476 | 264 | 1980 | 13200 | 1020 | –
SICLDYIIV | 689 | 1460 | 579 | 8650 | 2930 | –
SNPNLFWAV | – | – | – | – | – | IC50 (HLA-A*02:06; [12]): 35 nM; IC50 (HLA-A*02:02; [12]): 170 nM; IC50 (HLA-A*02:01 [1]; [12]): 1460 nM; IC50 (HLA-A*68:02 [2]; [12]): 79 nM; IC50 (HLA-A*02:03; [12]): 6160 nM
GLLQFIVFL | – | – | – | – | – | IC50 (HLA-A*02:06; [11]): 12 nM; IC50 (HLA-A*02:02; [11]): 0.6 nM; IC50 (HLA-A*02:01 [1]; [11]): 0.0075 nM; IC50 (HLA-A*68:02 [3]; [11]): 12000 nM; IC50 (HLA-A*02:03; [11]): 7720 nM
YAVLSEYET | 1330 | 1780 | – | 35100 | 246 | IC50 (HLA-A*02:01 [4]; [6]): 37200 nM
MSPALFFTFL | – | – | – | – | – | IC50 (HLA-A*02:06; [12]): 834 nM; IC50 (HLA-A*02:02; [12]): 547 nM; IC50 (HLA-A*68:02 [2]; [12]): 102 nM; IC50 (HLA-A*02:01 [4]; [12]): 6380 nM; IC50 (HLA-A*02:03; [12]): 7640 nM
